# Patent publication US20240343803A1 (SHANDONG SIMCERE BIOPHARMACEUTICAL, published 2024)
# Numbering of substitutions follows the chain as printed.
# B1: TIGIT-006-H3L1 (antibody, V domains shown)
# VH: EVQLQESGPGLVKPSETLSLTCAVSGYSMTSDYWNWIRQPPGKKLEWIGYISYSGRTYYNPSLKSRVTISRDTSKNQFSLKLSSVTAADTAVYYCARGDYSNYGGAMYDWGQGTTVTVSS
# VL: DIVMTQTPLSLSVTPGQPASISCRASQGVSTTIAWYLQKPGQSPQLLIYSASYRYTGVPDRFSGSGSGTDFTLKISRVEAEDVGVYYCQQYYSSPFTFGGGTKVEIK
# notes: Humanized anti-TIGIT antibody
# B2: TIGIT-006-H1L1 (antibody, V domains shown)
# VH: B1 VH with M29I, K44G
# VL: B1 VL
# notes: Humanized anti-TIGIT antibody
# B3: TIGIT-006-H2L2 (antibody, V domains shown)
# VH: B1 VH with K44G
# VL: B1 VL with L37Q, Q45K
# notes: Humanized anti-TIGIT antibody
# B4: TIGIT-006-H4L1 (antibody, V domains shown)
# VH: B1 VH with I48M, V67I
# VL: B1 VL
# notes: Humanized anti-TIGIT antibody
# B5: TIGIT-006-H4L2 (antibody, V domains shown)
# VH: B1 VH with I48M, V67I
# VL: B1 VL with L37Q, Q45K
# notes: Humanized anti-TIGIT antibody
# B6: PVRIG-A43 (VHH)
# VHH: QVQLVESGGGLVQSGGSLRLSCAASGRTRSMYVMGWFRQAPGKEREFVGRIKWSGDTTYTSYADFVKGRFTLYGNQARNTVYLQMNSLKVEDTAVYYCAGRVVPLPSRQRDRYDYWGQGTQVTVSS
# notes: tested as VHH-hinge-CH2-CH3 (human IgG1-Fc); not shown: human IgG1 hinge-CH2-CH3
# B7: PVRIG-A104 (VHH)
# VHH: EVQVVESGGGLVQAGGSLRLSCAASGRTRSMYVMGWFRQAPGKEREFVGRIKWSGDTTYTSYADFVKGRFTLYGNQARNTVYLQMNSLKPEDTAVYYCYRRSWTNTKLYWGKGIQVTVSS
# notes: as for B6
# Molecular target: T1, Fusion protein of extracellular domain of human TIGIT and human IgG1 Fc fragment (human TIGIT ECD-hFc) (human)
# T1 construct: The entry includes the signal peptide (limits not recoverable) and the human IgG1 Fc
# Experiment: blocking of TIGIT ECD-hFc binding to CHO-K1 CD155 cells
# Method in brief: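 Inhibition was expressed as IC50 values derived from the inhibition curves of a cell-based ELISA. CHO-K1 CD155 cells were cultured overnight, fixed, and blocked with 5% skim milk-PBS. Antibodies were first premixed for 0.5 h with human TIGIT ECD-hFc at a working concentration of 30 ng/mL, and the mixture was then added to the cells for 1.5-2 h at 37° C. Bound TIGIT was detected with HRP secondary antibody (1:5000, 37° C, 1 h) and TMB, and read as OD450 nm.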
# T1 sequence (chain, as listed by the source limits assumed): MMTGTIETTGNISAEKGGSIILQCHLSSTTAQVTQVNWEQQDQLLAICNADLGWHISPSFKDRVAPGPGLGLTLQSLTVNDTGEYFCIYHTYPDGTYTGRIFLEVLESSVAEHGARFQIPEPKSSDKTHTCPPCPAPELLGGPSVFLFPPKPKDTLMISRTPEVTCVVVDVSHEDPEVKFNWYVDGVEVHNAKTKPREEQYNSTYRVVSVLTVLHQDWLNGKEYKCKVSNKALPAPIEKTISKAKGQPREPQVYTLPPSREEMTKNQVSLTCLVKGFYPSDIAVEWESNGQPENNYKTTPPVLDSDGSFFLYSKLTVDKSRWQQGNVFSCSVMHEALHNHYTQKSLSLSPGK
row,Binder,IC50
1,B1,0.637 nM
2,B2,1.53 nM
3,B3,0.904 nM
4,B4,0.704 nM
5,B5,0.671 nM

# Molecular target: T2, Fusion protein of extracellular domain of human TIGIT and His-tag (human TIGIT ECD-his) (human)
# T2 chain: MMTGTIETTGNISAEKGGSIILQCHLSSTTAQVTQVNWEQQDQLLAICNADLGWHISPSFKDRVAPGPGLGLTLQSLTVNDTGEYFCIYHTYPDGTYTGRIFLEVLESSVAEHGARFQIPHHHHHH
# Experiment: BIAcore; KD ratio to TIGIT-CHI-006
row,Binder,Fold change vs chimeric antibodies (KD)
1,B1,9.11 fold
2,B2,80.3 fold
3,B3,11.5 fold
4,B4,8.49 fold
5,B5,8.5 fold

# Molecular target: T3, Fusion protein of extracellular domain of human TIGIT and mouse IgG2a Fc fragment (human TIGIT ECD-mFc) (human)
# T3 construct: The entry includes the signal peptide (limits not recoverable) and the mouse IgG2a Fc
# T3 chain: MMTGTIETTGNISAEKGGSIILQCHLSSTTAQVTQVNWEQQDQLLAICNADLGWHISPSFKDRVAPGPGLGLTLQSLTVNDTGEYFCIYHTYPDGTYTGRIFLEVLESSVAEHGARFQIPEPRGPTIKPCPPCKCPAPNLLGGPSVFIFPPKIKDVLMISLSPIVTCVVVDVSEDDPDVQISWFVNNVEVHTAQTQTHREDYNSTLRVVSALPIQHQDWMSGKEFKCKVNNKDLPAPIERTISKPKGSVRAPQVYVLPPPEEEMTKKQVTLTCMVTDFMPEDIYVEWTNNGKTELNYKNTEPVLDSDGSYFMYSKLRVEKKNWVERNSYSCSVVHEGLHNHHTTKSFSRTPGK
# Experiment: ELISA, human TIGIT ECD-mFc
# Procedure: (§1) After discarding the coating solution, the plate was added with 5% skim milk powder (Sangon Biotech, CAT #A600669-0250)-PBS, 250 μL/well, and incubated at 37° C. for 2-4 hours. […] The enzyme-labeled plate was then washed with 0.05% Tween 20-PBS for 3 times on the Microplate Washer, added with tested antibodies diluted to 13 nM with 1% BSA (diluted by 3-fold serial dilution for 12 concentration points), 50 μL/well, and incubated at 37° C. for 1.5-2 hours. The plate was washed with 0.05% Tween 20-PBS for 3 times on the Microplate Washer, then added with HRP enzyme-labeled antibodies (Merck, CAT #AP113P) diluted with 1% BSA (Sangon Biotech, CAT #A500023-0100)-PBS at a dilution ratio of 1:5000, 50 μL/well, and incubated at 37° C. for 1 hour. After washing 3 times with 0.05% Tween 20-PBS on the Microplate Washer, the plate was added with TMB chromogenic solution (KPL, CAT #52-00-03), 50 μL/well, and incubated at room temperature for 7-10 minutes. 1M HCL, 50 μL/well, was then added into the plate to terminate the reaction, and the OD450 nm was read by a microplate reader (Biotek, Powerwave HT). […] (b) The binding activity of anti-TIGIT chimeric antibodies to CHO-K1 human TIGIT (cells with high, medium and low expression levels) and CHO-KI cynomolgus monkey TIGIT detected by FACS.
# (§2) The affinity of the above humanized antibodies with human TIGIT ECD-His is detected by BIAcore, and with reference to the methods of Example 4 (a), (b), and (d), the binding activity of the above humanized antibodies to human TIGIT ECD-mFc, CHO-K1 human TIGIT, CHO-K1 cynomolgus monkey TIGIT and cynomolgus monkey TIGIT ECD-mFc, and the effect of the humanized antibodies blocking the binding between human TIGIT ECD-mFc and CHO-K1 CD155 are detected, the results are shown in Table 18.
row,Binder,EC50
1,B1,0.0096 nM
2,B2,0.0186 nM
3,B3,0.0117 nM
4,B4,0.0086 nM
5,B5,0.0113 nM

# Molecular target: T4, Fusion protein of extracellular domain of cynomolgus monkey TIGIT and mouse IgG2a Fc fragment (cynomolgus … (cynomolgus monkey))
# T4 construct: The entry includes the signal peptide (limits not recoverable) and the mouse IgG2a Fc
# Experiment: ELISA, cynomolgus monkey TIGIT ECD-mFc
# Procedure: as §1, §2
Binder,EC50,binding result
B1,2.81 nM,
B2,,no binding
B3,3.38 nM,
B4,1.53 nM,
B5,0.997 nM,

# Molecular target: T5, Full-length human TIGIT on CHO-K1 cells (CHO-K1 human TIGIT) (human, UniProt Q495A1 22-244)
# T5 construct: NCBI XP_024309156.1; the entry includes the signal peptide (limits not recoverable); The strain (high, medium, low) is named under assay; also called high expression strain 1D2; medium expression strain 2D10
# T5 sequence: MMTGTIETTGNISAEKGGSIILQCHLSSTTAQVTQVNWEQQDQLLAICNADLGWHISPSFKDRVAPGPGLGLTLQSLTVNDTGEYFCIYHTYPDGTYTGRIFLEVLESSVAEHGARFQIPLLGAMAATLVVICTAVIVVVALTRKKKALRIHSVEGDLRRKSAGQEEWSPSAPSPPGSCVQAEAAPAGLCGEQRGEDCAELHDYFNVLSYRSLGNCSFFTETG
# Experiment: cell binding, CHO-K1 human TIGIT high expression strain
# Procedure: (§3) The collected cells were washed once with PBS (Hyclone, CAT #SH30256), resuspended to 2×10⁵/50 μL with 1% BSA-PBS. The antibodies were diluted to 80 nM with 1% BSA-PBS (diluted by 3-fold serial dilution for 12 concentration points). The 50 μL cells were then mixed with 50 μL diluted antibodies, and then incubated at 4° C. for 60 minutes. […] After washing twice with PBS, the cell samples were resuspended with 1% BSA-PBS, 100 μL/well and then analyzed by flow cytometry (BD, Canto II). […] [0298] (c) The effect of anti-TIGIT chimeric antibodies blocking the interaction between Bio-CD155-His and CHO-K1 human TIGIT high expression cell strains detected by FACS
# as §2
row,Binder,EC50
1,B1,0.0468 nM
2,B2,0.0702 nM
3,B3,0.0444 nM
4,B4,0.0349 nM
5,B5,0.0251 nM

# Molecular target: T6, human PVRIG-mFc protein (Acro, PVG-H5253) (human, UniProt Q6DKI7 41-171, limits assumed)
# T6 construct: bought reagent; also called PVRIG-ECD-mFc
# T6 sequence (looked up): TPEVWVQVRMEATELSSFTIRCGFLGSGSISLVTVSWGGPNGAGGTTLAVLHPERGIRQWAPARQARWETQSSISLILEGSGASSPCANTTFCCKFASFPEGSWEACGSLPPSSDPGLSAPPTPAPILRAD
# Experiment: competition FACS; blocked: human PVRIG-mFc binding to CHO-K1-CD112 cells
# Procedure: After incubation, the cells were added with staining buffer (2% FBS+PBS) to stop staining, centrifuged at 350×g to remove the supernatant, washed twice and resuspended with staining buffer to a density of 1×10⁶ cells/mL. The cells were plated into a 96-well plate (50 μL of cell suspension per well) for further use. A working solution of human PVRIG-mFc protein (Acro, PVG-H5253) prepared with staining buffer, 1 μg/mL (four-fold concentration), was added into a 96-well plate (50 μL PVRIG-mFc working solution per well). […] The diluted antibodies were added to the well containing 50 μL of PVRIG-mFc. The plate was placed on a microplate shaker at 400 rpm for 1 minute to fully mix the antibodies and PVRIG-mFc proteins, and then incubated at 4° C. for 30 minutes. After the incubation, the cell suspension prepared above (100 μL) was added into the wells, gently mixed with the pipette tip and incubated at 4° C. for 30 minutes. After the incubation, the cells were washed twice with staining buffer (200 μL per well) and centrifuged at 350×g for 5 minutes to discard the supernatant. The PE goat anti-mouse IgG Fc antibody (Biolegend, 405337) was diluted 250 times with staining buffer, added into the washed wells (100 μL per well), mixed well, and stained at 4° C. for 30 minutes. After staining, the cells were washed twice with staining buffer, finally resuspended with 200 μL staining buffer and analyzed by flow cytometry (BD, Canto II). The weaker the fluorescence signal, the stronger the ability of the antibodies blocks the binding of CHO-K1 human CD112 cells to the PVRIG-mFc protein. An antibody binding curve was drawn with concentration of antibodies as the abscissa and the corresponding Mean Fluorescence Intensity (MFI) as the ordinate. The IC50 value of the antibodies and the AUC value of the binding curve were calculated by using a Four Parameter Logistic Fit (GraphPadPrism9). The smaller the IC50 value and AUC value, the stronger the ability of the antibodies competes with CHO-K1-CD112 cells to bind to human PVRIG-mFc protein.
row,Binder,IC50 (read off the curve)
1,B6,~1 nM
2,B7,~1 nM

# Molecular target: T7, human PVRIG-his (AcroBiosystems, Cat NO. PVG-H52H4) (human, UniProt Q6DKI7 41-171, limits assumed)
# T7 construct: treated as the same protein; also called human PVRIG-His protein; Human PVRIG-His, Acro C227P1-9ARF1-T4
# T7 sequence (looked up): T6 sequence (looked up)
# Experiment: competition ELISA on coated human PVRIG-his; blocked ligand human PVRL2-mFc
# Procedure: The ELISA plate was pre-coated with 100 μL/well of 0.5 μg/mL human PVRIG-his protein (AcroBiosystems, Cat NO. PVG-H52H4). The tested anti-PVRIG antibodies were diluted from the highest concentration of 16 nM (two-fold concentration). The diluted antibodies were mixed with 18 ng/ml human PVRL2-mFc (AcroBiosystems, Cat NO. CD2-H5257) in equal volume, added into the plate (100 μL/well), and incubated with shaking at room temperature for 2.0 hours. […] A HRP substrate, TMB (Thermo, Cat NO. 34029) was added into wells after washing the plate again for color development. After adding a termination solution to terminate the reaction, the absorbance value was read by a microplate reader (MD i3×). An inhibiting curve was drawn with concentration of antibodies as the abscissa and the corresponding OD value as the ordinate. The IC50 value was calculated by using a Four Parameter Logistic Fit (GraphPadPrism9). The smaller the IC50 value, the stronger the ability of the antibodies inhibits the binding between PVRIG and PVRL2. The positive and negative controls are the same as in Example 8.
row,Binder,IC50 (read off the curve)
1,B6,~1000 pM
2,B7,~1000 pM

# Molecular target: T8, Full-length cynomolgus monkey TIGIT on CHO-K1 cells (CHO-K1 cynomolgus monkey TIGIT) (cynomolgus monkey)
# T8 construct: NCBI XP_015300911.1
# Experiment: cell binding, CHO-K1 cynomolgus monkey TIGIT
# Procedure: as §3, §2
# T8 sequence (chain, as listed by the source limits assumed): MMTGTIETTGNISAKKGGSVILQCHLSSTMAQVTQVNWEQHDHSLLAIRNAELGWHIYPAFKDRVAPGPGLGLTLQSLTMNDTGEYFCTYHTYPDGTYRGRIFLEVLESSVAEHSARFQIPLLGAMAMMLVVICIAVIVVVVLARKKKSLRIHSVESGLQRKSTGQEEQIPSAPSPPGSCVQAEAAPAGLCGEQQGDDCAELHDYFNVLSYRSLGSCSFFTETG
row,Binder,binding result
1,B2,no binding

# Molecular target: T2, Fusion protein of extracellular domain …
# Experiment: BIAcore
Binder,Kd,koff,kon
B1,0.705 nM,0.000241 s⁻¹,342000 M⁻¹ s⁻¹
B2,6.21 nM,0.000757 s⁻¹,122000 M⁻¹ s⁻¹
B3,0.893 nM,0.000324 s⁻¹,363000 M⁻¹ s⁻¹
B4,0.657 nM,0.000258 s⁻¹,393000 M⁻¹ s⁻¹
B5,0.658 nM,0.000221 s⁻¹,337000 M⁻¹ s⁻¹
